Article PMC8277605, “Binding of gephyrin to microtubules is regulated by its phosphorylation at Ser270” (Histochemistry and Cell Biology, 2021)

Legend:
[1] = target: microtubules polymerized from endogenous tubulin of HEK293T cell extracts (human (endogenous in HEK293T)) (UniProt P68363); test: co-sedimentation; MT co-sedimentation assay with HEK293T lysates only (gephyrin alone, gephyrin or mutant gephyrin with CbII(-SH3)); endogenous cellular tubulin polymerized with 2 mM GTP and 20 uM paclitaxel in MES buffer; 100,000 x g; immunoblot with mAb7a, R-20, DM1alpha; band ratios standardized to the tubulin signal
Chain of microtubules polymerized from endogenous tubulin of HEK293T cell extracts (human (endogenous in HEK293T)) (P68363 whole entry, chain 1 of 2): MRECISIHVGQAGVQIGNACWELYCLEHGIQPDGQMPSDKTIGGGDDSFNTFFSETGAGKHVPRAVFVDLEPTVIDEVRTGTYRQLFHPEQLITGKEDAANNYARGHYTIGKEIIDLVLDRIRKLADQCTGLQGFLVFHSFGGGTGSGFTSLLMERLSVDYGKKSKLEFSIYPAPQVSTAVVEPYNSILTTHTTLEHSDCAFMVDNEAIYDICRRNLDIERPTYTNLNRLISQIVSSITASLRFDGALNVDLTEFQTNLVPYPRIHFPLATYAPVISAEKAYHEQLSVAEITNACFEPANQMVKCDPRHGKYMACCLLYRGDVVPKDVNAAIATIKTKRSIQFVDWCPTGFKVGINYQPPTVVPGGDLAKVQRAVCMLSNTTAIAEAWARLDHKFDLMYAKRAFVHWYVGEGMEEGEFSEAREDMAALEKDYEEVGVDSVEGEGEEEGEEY
Chain of microtubules polymerized from endogenous tubulin of HEK293T cell extracts (human (endogenous in HEK293T)) (P07437 whole entry, chain 2 of 2, further chain): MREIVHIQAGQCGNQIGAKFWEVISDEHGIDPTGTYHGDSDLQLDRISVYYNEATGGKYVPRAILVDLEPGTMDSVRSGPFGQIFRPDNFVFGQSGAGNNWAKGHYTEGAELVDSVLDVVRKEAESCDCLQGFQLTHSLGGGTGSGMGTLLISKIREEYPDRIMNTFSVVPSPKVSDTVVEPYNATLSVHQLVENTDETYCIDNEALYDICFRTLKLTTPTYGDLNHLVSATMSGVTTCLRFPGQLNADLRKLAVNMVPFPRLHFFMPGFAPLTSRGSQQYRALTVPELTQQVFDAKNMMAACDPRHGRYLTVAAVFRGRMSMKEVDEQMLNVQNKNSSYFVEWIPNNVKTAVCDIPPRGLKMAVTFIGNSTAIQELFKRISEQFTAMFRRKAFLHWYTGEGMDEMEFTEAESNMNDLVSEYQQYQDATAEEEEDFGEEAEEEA

[2] = target: the molecule itself; test: native gel or EMSA; blue-native PAGE of 100 ug cytosol per lane, second dimension 12.5% SDS-PAGE, Western blot for gephyrin; NativeMARK standard

Molecule | ratio of the mAb7a signal in the insoluble to soluble fraction [1] | stoichiometry N [2]
recombinant gephyrin (P1), N-terminally 6-histidine-tagged (natural protein) | 1.5 | –
recombinant gephyrin (P1) phosphorylated at Ser270 (detected by mAb7a) (natural protein) | 0.17 | –
gephyrin from liver tissue (natural protein, UniProt Q03555 1-768, looked up, gephyrin endogenous in liver tissue; source: endogenous, liver protein extract) MATEGMILTNHDHQIRVGVLTVSDSCFRNLAEDRSGINLKDLVQDPSLLGGTISAYKIVPDEIEEIKETLIDWCDEKELNLILTTGGTGFAPRDVTPEKFPTFPFCGLQKGATKEVIEREAPGMALAMLMGSLNVTPLGMLSRPVCGIRGKTLIINLPGSKKGSQECFQFILPALPHAIDLLRDAIVKVKEVHDELEDLPSPPPPLSPPPTTSPHKQTEDKGVQCEEEEEEKKDSGVASTEDSSSSHITAAALAAKIPDSIISRGVQVLPRDTASLSTTPSESPRAQATSRLSTASCPTPKQIRRPDESKGVASRVGSLKVQSRCSSKENILRASHSAVDITKVARRHRMSPFPLTSMDKAFITVLEMTPVLGTEIINYRDGMGRVLAQDVYAKDNLPPFPASVKDGYAVRAADGPGDRFIIGESQAGEQPTQTVMPGQVMRVTTGAPIPCGADAVVQVEDTELIRESDDGTEELEVRILVQARPGQDIRPIGHDIKRGECVLAKGTHMGPSEIGLLATVGVTEVEVNKFPVVAVMSTGNELLNPEDDLLPGKIRDSNRSTLLATIQEHGYPTINLGIVGDNPDDLLNALNEGISRADVIITSGGVSMGEKDYLKQVLDIDLHAQIHFGRVFMKPGLPTTFATLDIDGVRKIIFALPGNPVSAVVTCNLFVVPALRKMQGILDPRPTIIKARLSCDVKLDPRPEYHRCILTWHHQEPLPWAQSTGNQMSSRLMSMRSANGLLMLPPKTEQYVELHKGEVVDVMVIGRL | – | 6
gephyrin, endogenous in HEK293T cells (natural protein, human (endogenous in HEK293T), UniProt Q9NQX3 1-736, looked up, human gephyrin, endogenous in HEK293T cells; also called endogenous gephyrin; source: endogenous, HEK293T protein extract (cytosol)) MATEGMILTNHDHQIRVGVLTVSDSCFRNLAEDRSGINLKDLVQDPSLLGGTISAYKIVPDEIEEIKETLIDWCDEKELNLILTTGGTGFAPRDVTPEATKEVIEREAPGMALAMLMGSLNVTPLGMLSRPVCGIRGKTLIINLPGSKKGSQECFQFILPALPHAIDLLRDAIVKVKEVHDELEDLPSPPPPLSPPPTTSPHKQTEDKGVQCEEEEEEKKDSGVASTEDSSSSHITAAAIAAKIPDSIISRGVQVLPRDTASLSTTPSESPRAQATSRLSTASCPTPKVQSRCSSKENILRASHSAVDITKVARRHRMSPFPLTSMDKAFITVLEMTPVLGTEIINYRDGMGRVLAQDVYAKDNLPPFPASVKDGYAVRAADGPGDRFIIGESQAGEQPTQTVMPGQVMRVTTGAPIPCGADAVVQVEDTELIRESDDGTEELEVRILVQARPGQDIRPIGHDIKRGECVLAKGTHMGPSEIGLLATVGVTEVEVNKFPVVAVMSTGNELLNPEDDLLPGKIRDSNRSTLLATIQEHGYPTINLGIVGDNPDDLLNALNEGISRADVIITSGGVSMGEKDYLKQVLDIDLHAQIHFGRVFMKPGLPTTFATLDIDGVRKIIFALPGNPVSAVVTCNLFVVPALRKMQGILDPRPTIIKARLSCDVKLDPRPEYHRCILTWHHQEPLPWAQSTGNQMSSRLMSMRSANGLLMLPPKTEQYVELHKGEVVDVMVIGRL | – | 6
gephyrin, endogenous in U2OS cells (natural protein, human (endogenous in U2OS), UniProt Q9NQX3 1-736, looked up, human gephyrin, endogenous in U2OS osteosarcoma cells; also called endogenous gephyrin; source: endogenous, U2OS protein extract (cytosol)) MATEGMILTNHDHQIRVGVLTVSDSCFRNLAEDRSGINLKDLVQDPSLLGGTISAYKIVPDEIEEIKETLIDWCDEKELNLILTTGGTGFAPRDVTPEATKEVIEREAPGMALAMLMGSLNVTPLGMLSRPVCGIRGKTLIINLPGSKKGSQECFQFILPALPHAIDLLRDAIVKVKEVHDELEDLPSPPPPLSPPPTTSPHKQTEDKGVQCEEEEEEKKDSGVASTEDSSSSHITAAAIAAKIPDSIISRGVQVLPRDTASLSTTPSESPRAQATSRLSTASCPTPKVQSRCSSKENILRASHSAVDITKVARRHRMSPFPLTSMDKAFITVLEMTPVLGTEIINYRDGMGRVLAQDVYAKDNLPPFPASVKDGYAVRAADGPGDRFIIGESQAGEQPTQTVMPGQVMRVTTGAPIPCGADAVVQVEDTELIRESDDGTEELEVRILVQARPGQDIRPIGHDIKRGECVLAKGTHMGPSEIGLLATVGVTEVEVNKFPVVAVMSTGNELLNPEDDLLPGKIRDSNRSTLLATIQEHGYPTINLGIVGDNPDDLLNALNEGISRADVIITSGGVSMGEKDYLKQVLDIDLHAQIHFGRVFMKPGLPTTFATLDIDGVRKIIFALPGNPVSAVVTCNLFVVPALRKMQGILDPRPTIIKARLSCDVKLDPRPEYHRCILTWHHQEPLPWAQSTGNQMSSRLMSMRSANGLLMLPPKTEQYVELHKGEVVDVMVIGRL | – | 6
